{"source": "patent US11306156", "key": {"[1]": {"biological_target": "tissue factor (TF) antigen (UniProt P13726)", "assay": "SPR; log change of median KD against wild-type D3H44 Fab"}, "[2]": {"biological_target": "tissue factor (TF) antigen (UniProt P13726)", "assay": "SPR, Fab captured by anti-penta-His, TF injected, 1:1 fit"}, "[3]": {"biological_target": "D3H44 light chain T178R with N-terminal HA or FLAG tag", "assay": "LCCA (SPR tag readout), L1:L2 DNA 1:3, normalized to 1:1; competing light chain m13"}, "[4]": {"biological_target": "tissue factor (TF) antigen (UniProt P13726)", "assay": "SPR, against wild-type D3H44 Fab"}, "[5]": {"biological_target": "tissue factor (TF) antigen (UniProt P13726)", "assay": "SPR (ProteOn XPR36), Fab captured on anti-penta-His, TF injected, 1:1 fit"}, "[6]": {"biological_target": "D3H44 light chain Q124E_L135W_Q160E_T180E", "assay": "LCCA, SPR tag readout, L1:L2 DNA 1:3 normalized to 1:1; competitor m23"}, "[7]": {"biological_target": "D3H44 light chain F116A_Q124R_L135V_T178R", "assay": "LCCA, SPR tag readout, L1:L2 DNA 1:3 normalized to 1:1; competitor m24"}, "[8]": {"biological_target": "D3H44 light chain F116A_Q124R_L135V", "assay": "LCCA, SPR tag readout, L1:L2 DNA 1:3 normalized to 1:1; competitor m24"}, "[9]": {"biological_target": "D3H44 light chain Q124E_L135W_Q160E_T180E", "assay": "LCCA, SPR tag readout, L1:L2 DNA 1:3 normalized to 1:1; competitor m25"}, "[10]": {"biological_target": "D3H44 light chain Q124E_L135W_Q160E_T180E", "assay": "LCCA, SPR tag readout, L1:L2 DNA 1:9 normalized to 1:1; competitor m23"}, "[11]": {"biological_target": "D3H44 light chain F116A_Q124R_L135V_T178R", "assay": "LCCA, SPR tag readout, L1:L2 DNA 1:9 normalized to 1:1; competitor m24"}, "[12]": {"biological_target": "D3H44 light chain F116A_Q124R_L135V", "assay": "LCCA, SPR tag readout, L1:L2 DNA 1:9 normalized to 1:1; competitor m24"}, "[13]": {"biological_target": "D3H44 light chain Q124E_L135W_Q160E_T180E", "assay": "LCCA, SPR tag readout, L1:L2 DNA 1:9 normalized to 1:1; competitor m25"}, "[14]": {"biological_target": "tissue factor (TF) antigen (UniProt P13726)", "assay": "SPR as for KD; reference: wild-type D3H44 Fab"}, "[15]": {"biological_target": "tissue factor (TF) antigen (UniProt P13726)", "assay": "SPR, ProteOn XPR36; His-tagged Fab captured on anti-penta-His, TF injected; 1:1 fit"}, "[16]": {"biological_target": "tissue factor (TF) antigen (UniProt P13726)", "assay": "SPR (ProteOn), against wild-type D3H44 Fab; estimated value taken from the Fab differing only in L chain tag"}, "[17]": {"biological_target": "tissue factor (TF) antigen (UniProt P13726)", "assay": "SPR (ProteOn), Fab captured by anti-penta-His, TF as analyte, 1:1 fit; estimated value taken from the Fab differing only in L chain tag"}, "[18]": {"biological_target": "tissue factor (TF) antigen (UniProt P13726)", "assay": "SPR (ProteOn XPR36), Fab captured on anti-penta-His surface, TF as analyte, 1:1 fit"}, "[19]": {"biological_target": "tissue factor (TF) antigen (UniProt P13726)", "assay": "SPR (ProteOn XPR36), Fab captured on anti-penta-His surface, TF as analyte; reference wild-type D3H44 Fab"}}}
{"substance": "H1L1 Fab heterodimer of LCCA sets 9721, 9720, 9723, 9722, 9725, 9716, 9712 and 9708 (D3H44 Fab, H1 L143E_K145T_S188L, L1 Q124R_Q160K_T178R)", "values": [{"measurement": "Change in median values of KD of h1l1 Fab heterodimer compared to wild type (-(log(KD design)-log(KD wt)))", "setting": "[1]", "value": -0.19, "unit": "log units"}, {"measurement": "Kd", "setting": "[2]", "value": 0.24, "unit": "nM"}]}
{"substance": "D3H44 Fab heavy chain L143D_K145T_Q179E with C-terminal ABD2-His6 tag", "values": [{"measurement": "H1L1:H1L2 normalized median ratio", "setting": "[3]", "value": 79, "unit": "%"}, {"measurement": "H1L1:H1L2 normalized median scalar value ln(r1/f1)", "setting": "[3]", "value": 1.31}]}
{"substance": "H1L1 Fab heterodimer of LCCA sets 9574 and 9573 (D3H44 Fab, H1 L143A_Q179K, L1 Q124E_V133Y_T180E)", "values": [{"measurement": "Change in median values of KD of h1l1 Fab heterodimer compared to wild type (-(log(KD design)-log(KD wt)))", "setting": "[1]", "value": -0.23, "unit": "log units"}, {"measurement": "Kd", "setting": "[2]", "value": 0.27, "unit": "nM"}]}
{"substance": "H1L1 Fab heterodimer of LCCA Set # 9068 (D3H44 Fab; H1 F174G, L1 S131T_S176F_T178F)", "values": [{"measurement": "Change in median values of KD of h1l1 Fab heterodimer compared to wild type (-(log(KD design)-log(KD wt)))", "setting": "[4]", "value": 0.07}, {"measurement": "Kd", "setting": "[5]", "value": 0.13, "unit": "nM"}]}
{"substance": "D3H44 Fab heavy chain Q179K", "values": [{"measurement": "H2L2:H2L1 normalized median ratio", "setting": "[6]", "value": 88, "unit": "%"}, {"measurement": "H2L2:H2L1 normalized median ratio", "setting": "[7]", "value": 12, "unit": "%"}, {"measurement": "H2L2:H2L1 normalized median ratio", "setting": "[8]", "value": 23, "unit": "%"}, {"measurement": "H2L2:H2L1 normalized median ratio", "setting": "[9]", "value": 77, "unit": "%"}, {"measurement": "H2L2:H2L1 normalized median ratio", "setting": "[10]", "value": 87, "unit": "%"}, {"measurement": "H2L2:H2L1 normalized median ratio", "setting": "[11]", "value": 13, "unit": "%"}, {"measurement": "H2L2:H2L1 normalized median ratio", "setting": "[12]", "value": 20, "unit": "%"}, {"measurement": "H2L2:H2L1 normalized median ratio", "setting": "[13]", "value": 80, "unit": "%"}]}
{"substance": "H1L1 Fab heterodimer of LCCA Set # 9073 (D3H44 Fab; H1 F174V, L1 S131T_S176F_T178Y)", "values": [{"measurement": "Change in median values of KD of h1l1 Fab heterodimer compared to wild type (-(log(KD design)-log(KD wt)))", "setting": "[4]", "value": 0.04}, {"measurement": "Kd", "setting": "[5]", "value": 0.14, "unit": "nM"}]}
{"substance": "H1L1 Fab heterodimer of LCCA Set # 9569 (D3H44 Fab; H1 L124W_L143F, L1 V133A_S176T_T178L)", "values": [{"measurement": "Change in median values of KD of h1l1 Fab heterodimer compared to wild type (-(log(KD design)-log(KD wt)))", "setting": "[4]", "value": -0.28}, {"measurement": "Kd", "setting": "[5]", "value": 0.3, "unit": "nM"}]}
{"substance": "H1L1 Fab heterodimer of LCCA Set # 9074 (D3H44 Fab; H1 H172R_Q179K, L1 Q124E_Q160E_T180E)", "values": [{"measurement": "Change in median values of KD of h1l1 Fab heterodimer compared to wild type (-(log(KD design)-log(KD wt)))", "setting": "[4]", "value": -0.01}, {"measurement": "Kd", "setting": "[5]", "value": 0.16, "unit": "nM"}]}
{"substance": "D3H44 Fab heavy chain A139W_L143E_K145T_Q179E", "values": [{"measurement": "H1L1:H1L2 normalized median ratio", "setting": "[6]", "value": 2, "unit": "%"}, {"measurement": "H2L2:H2L1 normalized median ratio", "setting": "[6]", "value": 2, "unit": "%"}, {"measurement": "H1L1:H1L2 normalized median ratio", "setting": "[7]", "value": 98, "unit": "%"}, {"measurement": "H1L1:H1L2 normalized median scalar value ln(r1/f1)", "setting": "[7]", "value": 3.79}, {"measurement": "H2L2:H2L1 normalized median ratio", "setting": "[7]", "value": 98, "unit": "%"}, {"measurement": "H1L1:H1L2 normalized median ratio", "setting": "[8]", "value": 97, "unit": "%"}, {"measurement": "H1L1:H1L2 normalized median scalar value ln(r1/f1)", "setting": "[8]", "value": 3.66}, {"measurement": "H2L2:H2L1 normalized median ratio", "setting": "[8]", "value": 97, "unit": "%"}, {"measurement": "H1L1:H1L2 normalized median ratio", "setting": "[9]", "value": 3, "unit": "%"}, {"measurement": "H2L2:H2L1 normalized median ratio", "setting": "[9]", "value": 3, "unit": "%"}, {"measurement": "H1L1:H1L2 normalized median ratio", "setting": "[10]", "value": 3, "unit": "%"}, {"measurement": "H2L2:H2L1 normalized median ratio", "setting": "[10]", "value": 3, "unit": "%"}, {"measurement": "H1L1:H1L2 normalized median ratio", "setting": "[11]", "value": 97, "unit": "%"}, {"measurement": "H1L1:H1L2 normalized median scalar value ln(r1/f1)", "setting": "[11]", "value": 3.38}, {"measurement": "H2L2:H2L1 normalized median ratio", "setting": "[11]", "value": 97, "unit": "%"}, {"measurement": "H1L1:H1L2 normalized median ratio", "setting": "[12]", "value": 95, "unit": "%"}, {"measurement": "H1L1:H1L2 normalized median scalar value ln(r1/f1)", "setting": "[12]", "value": 2.96}, {"measurement": "H2L2:H2L1 normalized median ratio", "setting": "[12]", "value": 95, "unit": "%"}, {"measurement": "H1L1:H1L2 normalized median ratio", "setting": "[13]", "value": 5, "unit": "%"}, {"measurement": "H2L2:H2L1 normalized median ratio", "setting": "[13]", "value": 5, "unit": "%"}]}
{"substance": "D3H44 Fab heterodimer, H1L1 of LCCA Sets # 9057, 9056 and 9055 (H1 A139G_V190A; L1 L135W_S176L)", "values": [{"measurement": "change in median KD compared to wild type, -(log(KD design)-log(KD wt))", "setting": "[14]", "value": -0.02}, {"measurement": "Kd", "setting": "[15]", "value": 0.16, "unit": "nM"}]}
{"substance": "D3H44 Fab heavy chain A139G_Q179K_V190A", "values": [{"measurement": "H1L1:H1L2 normalized median ratio", "setting": "[6]", "value": 87, "unit": "%"}, {"measurement": "H1L1:H1L2 normalized median scalar value ln(r1/f1)", "setting": "[6]", "value": 1.88}, {"measurement": "H1L1:H1L2 normalized median ratio", "setting": "[7]", "value": 13, "unit": "%"}, {"measurement": "H1L1:H1L2 normalized median ratio", "setting": "[8]", "value": 15, "unit": "%"}, {"measurement": "H1L1:H1L2 normalized median ratio", "setting": "[9]", "value": 85, "unit": "%"}, {"measurement": "H1L1:H1L2 normalized median scalar value ln(r1/f1)", "setting": "[9]", "value": 1.71}, {"measurement": "H1L1:H1L2 normalized median ratio", "setting": "[10]", "value": 86, "unit": "%"}, {"measurement": "H1L1:H1L2 normalized median scalar value ln(r1/f1)", "setting": "[10]", "value": 1.85}, {"measurement": "H1L1:H1L2 normalized median ratio", "setting": "[11]", "value": 14, "unit": "%"}, {"measurement": "H1L1:H1L2 normalized median ratio", "setting": "[12]", "value": 9, "unit": "%"}, {"measurement": "H1L1:H1L2 normalized median ratio", "setting": "[13]", "value": 91, "unit": "%"}, {"measurement": "H1L1:H1L2 normalized median scalar value ln(r1/f1)", "setting": "[13]", "value": 2.31}]}
{"substance": "D3H44 Fab heterodimer, H1L1 of LCCA set 9645 (H: L143E_K145T_Q179E; L: Q124K_T178R)", "values": [{"measurement": "Change in KD with respect to wild type (-(log(KD design) - log(KD wt)))", "setting": "[16]", "value": 0.05}, {"measurement": "Kd", "setting": "[17]", "value": 0.14, "unit": "nM"}]}
{"substance": "H1L1 Fab heterodimer of LCCA set 9058 (D3H44 Fab, H1 A139W_L143E_K145T_Q179E, L1 F116A_Q124R_L135V)", "values": [{"measurement": "Change in median values of KD of h1l1 Fab heterodimer compared to wild type (-(log(KD design)-log(KD wt)))", "setting": "[1]", "value": 0.12, "unit": "log units"}, {"measurement": "Kd", "setting": "[2]", "value": 0.12, "unit": "nM"}]}
{"substance": "H1L1 Fab heterodimer of LCCA sets 9078, 9077 and 9076 (D3H44 Fab, H1 H172T_Q179K, L1 Q124E_N137K_Q160E_S174R_T180E)", "values": [{"measurement": "Change in median values of KD of h1l1 Fab heterodimer compared to wild type (-(log(KD design)-log(KD wt)))", "setting": "[1]", "value": 0.01, "unit": "log units"}, {"measurement": "Kd", "setting": "[2]", "value": 0.15, "unit": "nM"}]}
{"substance": "D3H44 Fab heterodimer H1 L124R_A125R_H172T / L1 V133G_N137K_S174R_S176D", "values": [{"measurement": "Kd", "setting": "[18]", "value": 0.23, "unit": "nM"}, {"measurement": "Change in median values of KD of h1l1 Fab heterodimer compared to wild type (-(log(KD design)-log(KD wt)))", "setting": "[19]", "value": -0.16}]}
